Source: patent US12099068B2, “Biomarkers for graft-versus-host disease” (Incyte Corporation, priority 2018, dated 2024)

B1: PIK3AP1 (protein, UniProt Q6ZUJ8 1-805, looked up)
Phosphoinositide 3-kinase …: MAASGVPRGCDILIVYSPDAEEWCQYLQTLFLSSRQVRSQKILTHRLGPEASFSAEDLSLFLSTRCVVVLLSAELVQHFHKPALLPLLQRAFHPPHRVVRLLCGVRDSEEFLDFFPDWAHWQELTCDDEPETYVAAVKKAISEDSGCDSVTDTEPEDEKVVSYSKQQNLPTVTSPGNLMVVQPDRIRCGAETTVYVIVRCKLDDRVATEAEFSPEDSPSVRMEAKVENEYTISVKAPNLSSGNVSLKIYSGDLVVCETVISYYTDMEEIGNLLSNAANPVEFMCQAFKIVPYNTETLDKLLTESLKNNIPASGLHLFGINQLEEEDMMTNQRDEELPTLLHFAAKYGLKNLTALLLTCPGALQAYSVANKHGHYPNTIAEKHGFRDLRQFIDEYVETVDMLKSHIKEELMHGEEADAVYESMAHLSTDLLMKCSLNPGCDEDLYESMAAFVPAATEDLYVEMLQASTSNPIPGDGFSRATKDSMIRKFLEGNSMGMTNLERDQCHLGQEEDVYHTVDDDEAFSVDLASRPPVPVPRPETTAPGAHQLPDNEPYIFKVFAEKSQERPGNFYVSSESIRKGPPVRPWRDRPQSSIYDPFAGMKTPGQRQLITLQEQVKLGIVNVDEAVLHFKEWQLNQKKRSESFRFQQENLKRLRDSITRRQREKQKSGKQTDLEITVPIRHSQHLPAKVEFGVYESGPRKSVIPPRTELRRGDWKTDSTSSTASSTSNRSSTRSLLSVSSGMEGDNEDNEVPEVTRSRSPGPPQVDGTPTMSLERPPRVPPRAASQRPPTRETFHPPPPVPPRGR
B2: PRTG (protein, UniProt Q2VWP7 36-1150, looked up)
Protogenin: FSELSFVKEPQDVTVTRKDPVVLDCQAHGEVPIKVTWLKNGAKMSENKRIEVLSNGSLYISEVEGRRGEQSDEGFYQCLAMNKYGAILSQKAHLALSTISAFEVQPISTEVHEGGVARFACKISSHPPAVITWEFNRTTLPMTMDRITALPTGVLQIYDVSQRDSGNYRCIAATVAHRRKSMEASLTVIPAKESKSFHTPTIIAGPQNITTSLHQTVVLECMATGNPKPIISWSRLDHKSIDVFNTRVLGNGNLMISDVRLQHAGVYVCRATTPGTRNFTVAMATLTVLAPPSFVEWPESLTRPRAGTARFVCQAEGIPSPKMSWLKNGRKIHSNGRIKMYNSKLVINQIIPEDDAIYQCMAENSQGSILSRARLTVVMSEDRPSAPYNVHAETMSSSAILLAWERPLYNSDKVIAYSVHYMKAEGLNNEEYQVVIGNDTTHYIIDDLEPASNYTFYIVAYMPMGASQMSDHVTQNTLEDVPLRPPEISLTSRSPTDILISWLPIPAKYRRGQVVLYRLSFRLSTENSIQVLELPGTTHEYLLEGLKPDSVYLVRITAATRVGLGESSVWTSHRTPKATSVKAPKSPELHLEPLNCTTISVRWQQDVEDTAAIQGYKLYYKEEGQQENGPIFLDTKDLLYTLSGLDPRRKYHVRLLAYNNIDDGYQADQTVSTPGCVSVRDRMVPPPPPPHHLYAKANTSSSIFLHWRRPAFTAAQIINYTIRCNPVGLQNASLVLYLQTSETHMLVQGLEPNTKYEFAVRLHVDQLSSPWSPVVYHSTLPEAPAGPPVGVKVTLIEDDTALVSWKPPDGPETVVTRYTILYASRKAWIAGEWQVLHREGAITMALLENLVAGNVYIVKISASNEVGEGPFSNSVELAVLPKETSESNQRPKRLDSADAKVYSGYYHLDQKSMTGIAVGVGIALTCILICVLILIYRSKARKSSASKTAQNGTQQLPRTSASLASGNEVGKNLEGAVGNEESLMPMIMPNSFIDAKGGTDLIINSYGPIIKNNSKKKWFFFQDSKKIQVEQPQRRFTPAVCFYQPGTTVLISDEDSPSSPGQTTSFSRPFGVAADTEHSANSEGSHETGDSGRFSHESNDEIHLSSVISTTPPNL
B3: NQO2 (protein, UniProt P16083 1-231, looked up)
Ribosyldihydronicotinamide …: MAGKKVLIVYAHQEPKSFNGSLKNVAVDELSRQGCTVTVSDLYAMNLEPRATDKDITGTLSNPEVFNYGVETHEAYKQRSLASDITDEQKKVREADLVIFQFPLYWFSVPAILKGWMDRVLCQGFAFDIPGFYDSGLLQGKLALLSVTTGGTAEMYTKTGVNGDSRYFLWPLQHGTLHFCGFKVLAPQISFAPEIASEEERKGMVAAWSQRLQTIWKEEPIPCTAHWHFGQ
B4: SIGLEC10 (protein, UniProt Q96LC7 17-697, looked up)
Sialic acid-binding Ig-like …: MDGRFWIRVQESVMVPEGLCISVPCSFSYPRQDWTGSTPAYGYWFKAVTETTKGAPVATNHQSREVEMSTRGRFQLTGDPAKGNCSLVIRDAQMQDESQYFFRVERGSYVRYNFMNDGFFLKVTALTQKPDVYIPETLEPGQPVTVICVFNWAFEECPPPSFSWTGAALSSQGTKPTTSHFSVLSFTPRPQDHNTDLTCHVDFSRKGVSAQRTVRLRVAYAPRDLVISISRDNTPALEPQPQGNVPYLEAQKGQFLRLLCAADSQPPATLSWVLQNRVLSSSHPWGPRPLGLELPGVKAGDSGRYTCRAENRLGSQQRALDLSVQYPPENLRVMVSQANRTVLENLGNGTSLPVLEGQSLCLVCVTHSSPPARLSWTQRGQVLSPSQPSDPGVLELPRVQVEHEGEFTCHARHPLGSQHVSLSLSVHYSPKLLGPSCSWEAEGLHCSCSSQASPAPSLRWWLGEELLEGNSSQDSFEVTPSSAGPWANSSLSLHGGLSSGLRLRCEAWNVHGAQSGSILQLPDKKGLISTAFSNGAFLGIGITALLFLCLALIIMKILPKRRTQTETPRPRFSRHSTILDYINVVPTAGPLAQKRNQKATPNSPRTPLPPGAPSPESKKNQKKQYQLPSFPEPKSSTQAPESQESQEELHYATLNFPGVRPRPEARMPKGTQADYAEVKFQ
B5: SKAP1 (protein, UniProt Q86WV1 1-359, looked up)
Src kinase-associated …: MQAAALPEEIRWLLEDAEEFLAEGLRNENLSAVARDHRDHILRGFQQIKARYYWDFQPQGGDIGQDSSDDNHSGTLGLSLTSDAPFLSDYQDEGMEDIVKGAQELDNVIKQGYLEKKSKDHSFFGSEWQKRWCVVSRGLFYYYANEKSKQPKGTFLIKGYGVRMAPHLRRDSKKESCFELTSQDRRSYEFTATSPAEARDWVDQISFLLKDLSSLTIPYEEDEEEEEKEETYDDIDGFDSPSCGSQCRPTILPGSVGIKEPTEEKEEEDIYEVLPDEEHDLEEDESGTRRKGVDYASYYQGLWDCHGDQPDELSFQRGDLIRILSKEYNMYGWWVGELNSLVGIVPKEYLTTAFEVEER
B6: FCRL5 (protein, UniProt Q96RD9 16-977, looked up)
Fc receptor-like protein 5: QFARTPRPIIFLQPPWTTVFQGERVTLTCKGFRFYSPQKTKWYHRYLGKEILRETPDNILEVQESGEYRCQAQGSPLSSPVHLDFSSASLILQAPLSVFEGDSVVLRCRAKAEVTLNNTIYKNDNVLAFLNKRTDFHIPHACLKDNGAYRCTGYKESCCPVSSNTVKIQVQEPFTRPVLRASSFQPISGNPVTLTCETQLSLERSDVPLRFRFFRDDQTLGLGWSLSPNFQITAMWSKDSGFYWCKAATMPYSVISDSPRSWIQVQIPASHPVLTLSPEKALNFEGTKVTLHCETQEDSLRTLYRFYHEGVPLRHKSVRCERGASISFSLTTENSGNYYCTADNGLGAKPSKAVSLSVTVPVSHPVLNLSSPEDLIFEGAKVTLHCEAQRGSLPILYQFHHEGAALERRSANSAGGVAISFSLTAEHSGNYYCTADNGFGPQRSKAVSLSVTVPVSHPVLTLSSAEALTFEGATVTLHCEVQRGSPQILYQFYHEDMPLWSSSTPSVGRVSFSFSLTEGHSGNYYCTADNGFGPQRSEVVSLFVTVPVSRPILTLRVPRAQAVVGDLLELHCEAPRGSPPILYWFYHEDVTLGSSSAPSGGEASFNLSLTAEHSGNYSCEANNGLVAQHSDTISLSVIVPVSRPILTFRAPRAQAVVGDLLELHCEALRGSSPILYWFYHEDVTLGKISAPSGGGASFNLSLTTEHSGIYSCEADNGLEAQRSEMVTLKVAVPVSRPVLTLRAPGTHAAVGDLLELHCEALRGSPLILYRFFHEDVTLGNRSSPSGGASLNLSLTAEHSGNYSCEADNGLGAQRSETVTLYITGLTANRSGPFATGVAGGLLSIAGLAAGALLLYCWLSRKAGRKPASDPARSPSDSDSQEPTYHNVPAWEELQPVYTNANPRGENVVYSEVRIIQEKKKHAVASDPRHLRNKGSPIIYSEVKVASTPVSGSLFLASSAPHR
B7: TMPRSS15 (protein, UniProt P98073 2-784; P98073 785-1019, looked up)
Enteropeptidase non-catalytic …: GSKRGISSRHHSLSSYEIMFAALFAILVVLCAGLIAVSCLTIKESQRGAALGQSHEARATFKITSGVTYNPNLQDKLSVDFKVLAFDLQQMIDEIFLSSNLKNEYKNSRVLQFENGSIIVVFDLFFAQWVSDENVKEELIQGLEANKSSQLVTFHIDLNSVDILDKLTTTSHLATPGNVSIECLPGSSPCTDALTCIKADLFCDGEVNCPDGSDEDNKMCATVCDGRFLLTGSSGSFQATHYPKPSETSVVCQWIIRVNQGLSIKLSFDDFNTYYTDILDIYEGVGSSKILRASIWETNPGTIRIFSNQVTATFLIESDESDYVGFNATYTAFNSSELNNYEKINCNFEDGFCFWVQDLNDDNEWERIQGSTFSPFTGPNFDHTFGNASGFYISTPTGPGGRQERVGLLSLPLDPTLEPACLSFWYHMYGENVHKLSINISNDQNMEKTVFQKEGNYGDNWNYGQVTLNETVKFKVAFNAFKNKILSDIALDDISLTYGICNGSLYPEPTLVPTPPPELPTDCGGPFELWEPNTTFSSTNFPNSYPNLAFCVWILNAQKGKNIQLHFQEFDLENINDVVEIRDGEEADSLLLAVYTGPGPVKDVFSTTNRMTVLLITNDVLARGGFKANFTTGYHLGIPEPCKADHFQCKNGECVPLVNLCDGHLHCEDGSDEADCVRFFNGTTNNNGLVRFRIQSIWHTACAENWTTQISNDVCQLLGLGSGNSSKPIFPTDGGPFVKLNTAPDGHLILTPSQQCLQDSLIRLQCNHKSCGKKLAAQDITPK
Enteropeptidase catalytic …: IVGGSNAKEGAWPWVVGLYYGGRLLCGASLVSSDWLVSAAHCVYGRNLEPSKWTAILGLHMKSNLTSPQTVPRLIDEIVINPHYNRRRKDNDIAMMHLEFKVNYTDYIQPICLPEENQVFPPGRNCSIAGWGTVVYQGTTANILQEADVPLLSNERCQQQMPEYNITENMICAGYEEGGIDSCQGDSGGPLMCQENNRWFLAGVTSFGYKCALPNRPGVYARVSRFTEWIQSFLH

System: plasma proteins
Assay: Plasma proteins modulated between baseline and day 28 in responders (CR, VGPR, PR; n = 19), Example 6 (Table 13)
Type: in vivo, human
Conditions: plasma protein (OLINK NPX); responders (CR, VGPR, PR; n = 19); itacitinib 200 mg or 300 mg QD with corticosteroids; day 28 vs baseline
In short: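 Plasma at baseline/screening and day 28 profiled for >1000 proteins by OLINK proximity extension assay, reported as NPX (log2). Steroid-naive and steroid-refractory patients pooled. Paired and unpaired t tests, ANOVA and Pearson correlation applied; significance at P<0.05.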

| Molecule | Fold Change, Decreased Expression from Baseline to Day 28 | Fold Change, Increased Expression from Baseline to Day 28 |
| --- | --- | --- |
| B1 | −1.7193 |  |
| B2 |  | 1.1026 |
| B3 |  | 1.0895 |
| B4 | −1.4974 |  |
| B5 | −1.8075 |  |
| B6 | −1.3113 |  |
| B7 |  | 3.0633 |
